{
  "source": "paper PMC4243247",
  "about": "(Nature Communications, 2014)",
  "key": {"[1]": {"target": "T1, USP4 catalytic domain (USP4 CD, residues 296–925) (human, UniProt Q13107 296-925)", "T1 sequence (looked up)": "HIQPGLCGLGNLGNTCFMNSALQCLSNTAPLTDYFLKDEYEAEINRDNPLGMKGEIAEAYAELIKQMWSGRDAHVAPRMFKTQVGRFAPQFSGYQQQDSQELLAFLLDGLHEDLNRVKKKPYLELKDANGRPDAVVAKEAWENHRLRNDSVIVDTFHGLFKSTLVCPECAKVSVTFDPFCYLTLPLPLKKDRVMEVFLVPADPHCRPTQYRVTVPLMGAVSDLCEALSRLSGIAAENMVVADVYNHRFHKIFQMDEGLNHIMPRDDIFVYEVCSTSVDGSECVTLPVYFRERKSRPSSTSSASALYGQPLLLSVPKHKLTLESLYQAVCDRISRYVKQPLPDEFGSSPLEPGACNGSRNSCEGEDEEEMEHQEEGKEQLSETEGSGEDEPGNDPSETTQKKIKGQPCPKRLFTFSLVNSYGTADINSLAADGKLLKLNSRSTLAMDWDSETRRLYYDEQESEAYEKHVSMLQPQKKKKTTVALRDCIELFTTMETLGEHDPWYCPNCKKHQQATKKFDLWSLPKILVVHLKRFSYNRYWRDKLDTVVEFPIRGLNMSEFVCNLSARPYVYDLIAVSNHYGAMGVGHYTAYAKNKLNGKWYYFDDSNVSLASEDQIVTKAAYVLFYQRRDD", "assay": "cell-based or functional assay"}, "[2]": {"target": "T2, USP4 CD (residues 296–925), biotinylated on lysines (human, UniProt Q13107 296-925, biotin on lysines (half molar amounts of EZ-Link Sulfo-NHS-LC-LC-biotin))", "T2 construct": "USP4, human, catalytic domain with the insert, residues 296-925; same construct as m2, biotinylated for capture on the SA sensor chip; also called immobilized USP4 CD; biotinylated USP4; source: E. coli BL21(DE3), purified, then biotinylated", "T2 sequence (looked up)": "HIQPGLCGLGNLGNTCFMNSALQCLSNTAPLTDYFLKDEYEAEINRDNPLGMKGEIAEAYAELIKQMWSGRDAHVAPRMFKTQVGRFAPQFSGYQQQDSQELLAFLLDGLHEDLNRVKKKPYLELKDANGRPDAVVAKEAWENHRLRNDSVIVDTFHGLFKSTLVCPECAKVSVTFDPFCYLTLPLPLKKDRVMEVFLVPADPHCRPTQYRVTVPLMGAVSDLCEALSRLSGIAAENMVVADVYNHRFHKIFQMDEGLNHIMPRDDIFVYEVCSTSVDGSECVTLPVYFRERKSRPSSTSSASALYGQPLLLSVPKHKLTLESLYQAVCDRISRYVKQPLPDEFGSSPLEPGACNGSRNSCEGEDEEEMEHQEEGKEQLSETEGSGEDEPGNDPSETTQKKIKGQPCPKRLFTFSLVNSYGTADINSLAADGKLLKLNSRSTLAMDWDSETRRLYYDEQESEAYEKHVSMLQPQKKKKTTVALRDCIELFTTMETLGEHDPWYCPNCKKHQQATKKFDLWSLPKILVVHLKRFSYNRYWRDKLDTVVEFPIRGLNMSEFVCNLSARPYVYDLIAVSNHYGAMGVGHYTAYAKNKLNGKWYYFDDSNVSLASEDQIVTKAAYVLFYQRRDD", "assay": "SPR; Biacore T100, 25 °C; ~100 RU of biotinylated USP4 construct on SA chip; DUSP–Ubl concentration series flowed at 30 μl/min in 20 mM HEPES pH 7.5, 150 mM NaCl, 5 mM DTT, 0.05% Tween 20 with NSB reducer; apparent KD from EvilFit after removing the slow nonspecific off-rate component", "conditions": "both partners purified"}, "[3]": {"target": "T3, USP4 insert (residues 483–765), biotinylated on lysines (human, UniProt Q13107 483-765, biotin on lysines (half molar amounts of EZ-Link Sulfo-NHS-LC-LC-biotin))", "T3 construct": "USP4, human, the domain inserted within the catalytic core (carries a Ubl domain), residues 483-765; source: E. coli BL21(DE3), purified, then biotinylated", "T3 sequence (looked up)": "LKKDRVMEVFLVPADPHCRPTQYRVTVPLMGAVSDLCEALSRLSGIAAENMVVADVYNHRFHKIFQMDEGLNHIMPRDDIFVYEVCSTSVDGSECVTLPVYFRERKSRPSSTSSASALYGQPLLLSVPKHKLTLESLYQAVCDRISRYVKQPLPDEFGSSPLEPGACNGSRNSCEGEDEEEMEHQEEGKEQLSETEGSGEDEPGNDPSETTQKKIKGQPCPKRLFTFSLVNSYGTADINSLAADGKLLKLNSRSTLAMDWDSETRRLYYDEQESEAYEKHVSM", "assay": "SPR; Biacore T100, 25 °C; ~100 RU of biotinylated USP4 construct on SA chip; DUSP–Ubl concentration series flowed at 30 μl/min in 20 mM HEPES pH 7.5, 150 mM NaCl, 5 mM DTT, 0.05% Tween 20 with NSB reducer; apparent KD from EvilFit after removing the slow nonspecific off-rate component", "conditions": "both partners purified"}, "[4]": {"target": "T4, N-terminally TAMRA-labelled ubiquitin (UniProt P0CG48 1-76, TAMRA on the N-terminus)", "T4 construct": "ubiquitin, the cut product of the ubiquitin precursors; also called TAMRAUb; TAMRA-Ubiquitin", "assay": "fluorescence polarisation; stopped-flow, dissociation: USP4 constructs (12.5–250 nM) incubated with 2.5 nM TAMRA-ubiquitin 10–30 min, mixed with equal volume of 2.5 μM non-labelled ubiquitin; 20 °C; 20 mM HEPES pH 7.5, 150 mM NaCl, 5 mM DTT, 0.05% Tween 20; global fit to a two-phase decay (k_slow, k_fast)", "conditions": "both partners purified"}, "[5]": {"target": "T4, N-terminally TAMRA-labelled ubiquitin", "assay": "fluorescence polarisation; equilibrium: different concentrations of USP4 with 2.5 nM TAMRA-ubiquitin; same setup as the Ub–Rhod assays (25 °C, 20 mM HEPES pH 7.5, 150 mM NaCl, 5 mM DTT, 0.05% Tween 20); one-site binding model accounting for ligand depletion", "conditions": "both partners purified"}, "[6]": {"target": "T4, N-terminally TAMRA-labelled ubiquitin", "assay": "fluorescence polarisation; stopped-flow, association: equal volumes of USP4 (100–1,000 nM) and TAMRA-ubiquitin rapidly mixed; 20 °C; 20 mM HEPES pH 7.5, 150 mM NaCl, 5 mM DTT, 0.05% Tween 20; single exponential, kon as slope of Kobs against USP4 concentration", "conditions": "both partners purified"}},
  "data": [
    {"binder": "USP4 DUSP–Ubl domain (residues 8–228) (domain or fragment, human, UniProt Q13107 8-228, looked up, USP4, human, N-terminal tandem DUSP–Ubl domain, residues 8-228) RERPDAETQKSELGPLMRTTLQRGAQWYLIDSRWFKQWKKYVGFDSWDMYNVGEHNLFPGPIDNSGLFSDPESQTLKEHLIDELDYVLVPTEAWNKLLNWYGCVEGQQPIVRKVVEHGLFVKHCKVEVYLLELKLCENSDPTNVLSCHFSKADTIATIEKEMRKLFNIPAERETRLWNKYMSNTYEQLSKLDNTVQDAGLYQGQVLVIEPQNEDGTWPRQT", "values": [
      {"measurement": "Ub–Rhod catalytic rate of USP4 CD (50 nM, 5 μM substrate) with DUSP–Ubl added in trans at different concentrations up to 150 μM", "setting": "[1]", "value": "~9", "unit": "fold"},
      {"measurement": "Kd", "setting": "[2]", "value": "~100", "unit": "µM"},
      {"measurement": "Kd", "setting": "[3]", "value": "~44", "unit": "µM"}
    ]},
    {"binder": "USP4 DUSP–Ubl Y136A (domain or fragment, human, UniProt Q13107 8-228, looked up, USP4, human, DUSP–Ubl domain residues 8-228 with Y136A at the interface of the DUSP and Ubl domains; also called mutant DUSP–Ubl) RERPDAETQKSELGPLMRTTLQRGAQWYLIDSRWFKQWKKYVGFDSWDMYNVGEHNLFPGPIDNSGLFSDPESQTLKEHLIDELDYVLVPTEAWNKLLNWYGCVEGQQPIVRKVVEHGLFVKHCKVEVALLELKLCENSDPTNVLSCHFSKADTIATIEKEMRKLFNIPAERETRLWNKYMSNTYEQLSKLDNTVQDAGLYQGQVLVIEPQNEDGTWPRQT", "values": [
      {"measurement": "binding result", "setting": "[2]", "value": "binds"},
      {"measurement": "binding result", "setting": "[3]", "value": "binds"}
    ]},
    {"binder": "USP4 FL F386G (enzyme, human, UniProt Q13107 8-925, looked up, USP4, human, residues 8-925, switching loop mutant F386G; made with the QuickChange mutagenesis kit) RERPDAETQKSELGPLMRTTLQRGAQWYLIDSRWFKQWKKYVGFDSWDMYNVGEHNLFPGPIDNSGLFSDPESQTLKEHLIDELDYVLVPTEAWNKLLNWYGCVEGQQPIVRKVVEHGLFVKHCKVEVYLLELKLCENSDPTNVLSCHFSKADTIATIEKEMRKLFNIPAERETRLWNKYMSNTYEQLSKLDNTVQDAGLYQGQVLVIEPQNEDGTWPRQTLQSKSSTAPSRNFTTSPKSSASPYSSVSASLIANGDSTSTCGMHSSGVSRGGSGFSASYNCQEPPSSHIQPGLCGLGNLGNTCFMNSALQCLSNTAPLTDYFLKDEYEAEINRDNPLGMKGEIAEAYAELIKQMWSGRDAHVAPRMFKTQVGRFAPQGSGYQQQDSQELLAFLLDGLHEDLNRVKKKPYLELKDANGRPDAVVAKEAWENHRLRNDSVIVDTFHGLFKSTLVCPECAKVSVTFDPFCYLTLPLPLKKDRVMEVFLVPADPHCRPTQYRVTVPLMGAVSDLCEALSRLSGIAAENMVVADVYNHRFHKIFQMDEGLNHIMPRDDIFVYEVCSTSVDGSECVTLPVYFRERKSRPSSTSSASALYGQPLLLSVPKHKLTLESLYQAVCDRISRYVKQPLPDEFGSSPLEPGACNGSRNSCEGEDEEEMEHQEEGKEQLSETEGSGEDEPGNDPSETTQKKIKGQPCPKRLFTFSLVNSYGTADINSLAADGKLLKLNSRSTLAMDWDSETRRLYYDEQESEAYEKHVSMLQPQKKKKTTVALRDCIELFTTMETLGEHDPWYCPNCKKHQQATKKFDLWSLPKILVVHLKRFSYNRYWRDKLDTVVEFPIRGLNMSEFVCNLSARPYVYDLIAVSNHYGAMGVGHYTAYAKNKLNGKWYYFDDSNVSLASEDQIVTKAAYVLFYQRRDD", "values": [
      {"measurement": "k_fast (dissociation, fast component)", "setting": "[4]", "value": "0.26 ± 0.01", "unit": "s⁻¹"},
      {"measurement": "k_slow (dissociation, slow component)", "setting": "[4]", "value": "0.024 ± 0.002", "unit": "s⁻¹"}
    ]},
    {"binder": "USP4 CD F386G (domain or fragment, human, UniProt Q13107 296-925, looked up, USP4, human, catalytic domain residues 296-925, switching loop mutant F386G; made with the QuickChange mutagenesis kit) HIQPGLCGLGNLGNTCFMNSALQCLSNTAPLTDYFLKDEYEAEINRDNPLGMKGEIAEAYAELIKQMWSGRDAHVAPRMFKTQVGRFAPQGSGYQQQDSQELLAFLLDGLHEDLNRVKKKPYLELKDANGRPDAVVAKEAWENHRLRNDSVIVDTFHGLFKSTLVCPECAKVSVTFDPFCYLTLPLPLKKDRVMEVFLVPADPHCRPTQYRVTVPLMGAVSDLCEALSRLSGIAAENMVVADVYNHRFHKIFQMDEGLNHIMPRDDIFVYEVCSTSVDGSECVTLPVYFRERKSRPSSTSSASALYGQPLLLSVPKHKLTLESLYQAVCDRISRYVKQPLPDEFGSSPLEPGACNGSRNSCEGEDEEEMEHQEEGKEQLSETEGSGEDEPGNDPSETTQKKIKGQPCPKRLFTFSLVNSYGTADINSLAADGKLLKLNSRSTLAMDWDSETRRLYYDEQESEAYEKHVSMLQPQKKKKTTVALRDCIELFTTMETLGEHDPWYCPNCKKHQQATKKFDLWSLPKILVVHLKRFSYNRYWRDKLDTVVEFPIRGLNMSEFVCNLSARPYVYDLIAVSNHYGAMGVGHYTAYAKNKLNGKWYYFDDSNVSLASEDQIVTKAAYVLFYQRRDD", "values": [
      {"measurement": "Kd", "setting": "[5]", "value": "~1000", "unit": "nM"},
      {"measurement": "kon", "setting": "[6]", "value": "35000 ± 7000", "unit": "M⁻¹ s⁻¹"},
      {"measurement": "k_fast (dissociation, fast component)", "setting": "[4]", "value": "0.12 ± 0.016", "unit": "s⁻¹"},
      {"measurement": "k_slow (dissociation, slow component)", "setting": "[4]", "value": "0.015 ± 0.0006", "unit": "s⁻¹"}
    ]}
  ]
}
